Numbering of substitutions follows the chain as printed. Read-outs that look alike come from different tables or passages of the source.
How the values were obtained:
[1] = target: T1, GST-Sld2T84D (Saccharomyces cerevisiae, UniProt P34252 1-453, T84D); test: GST pull-down
T1 sequence: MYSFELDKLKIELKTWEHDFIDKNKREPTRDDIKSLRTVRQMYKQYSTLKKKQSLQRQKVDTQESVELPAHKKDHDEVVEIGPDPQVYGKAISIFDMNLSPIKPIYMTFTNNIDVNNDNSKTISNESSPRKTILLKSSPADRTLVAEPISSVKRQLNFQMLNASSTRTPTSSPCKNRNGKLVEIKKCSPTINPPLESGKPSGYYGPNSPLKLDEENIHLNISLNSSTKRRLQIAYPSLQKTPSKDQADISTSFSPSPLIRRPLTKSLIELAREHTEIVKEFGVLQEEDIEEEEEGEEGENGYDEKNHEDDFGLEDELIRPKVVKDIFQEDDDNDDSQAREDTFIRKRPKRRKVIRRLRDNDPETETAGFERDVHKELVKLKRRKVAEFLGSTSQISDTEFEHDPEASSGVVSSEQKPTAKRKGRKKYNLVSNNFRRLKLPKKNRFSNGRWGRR

[2] = target: T1, GST-Sld2T84D; test: GST pull-down; remark: listed apart in the source
[3] = target: T2, GST–Dpb11 (S. cerevisiae, UniProt P47027 1-764); test: pull-down
T2 sequence (looked up): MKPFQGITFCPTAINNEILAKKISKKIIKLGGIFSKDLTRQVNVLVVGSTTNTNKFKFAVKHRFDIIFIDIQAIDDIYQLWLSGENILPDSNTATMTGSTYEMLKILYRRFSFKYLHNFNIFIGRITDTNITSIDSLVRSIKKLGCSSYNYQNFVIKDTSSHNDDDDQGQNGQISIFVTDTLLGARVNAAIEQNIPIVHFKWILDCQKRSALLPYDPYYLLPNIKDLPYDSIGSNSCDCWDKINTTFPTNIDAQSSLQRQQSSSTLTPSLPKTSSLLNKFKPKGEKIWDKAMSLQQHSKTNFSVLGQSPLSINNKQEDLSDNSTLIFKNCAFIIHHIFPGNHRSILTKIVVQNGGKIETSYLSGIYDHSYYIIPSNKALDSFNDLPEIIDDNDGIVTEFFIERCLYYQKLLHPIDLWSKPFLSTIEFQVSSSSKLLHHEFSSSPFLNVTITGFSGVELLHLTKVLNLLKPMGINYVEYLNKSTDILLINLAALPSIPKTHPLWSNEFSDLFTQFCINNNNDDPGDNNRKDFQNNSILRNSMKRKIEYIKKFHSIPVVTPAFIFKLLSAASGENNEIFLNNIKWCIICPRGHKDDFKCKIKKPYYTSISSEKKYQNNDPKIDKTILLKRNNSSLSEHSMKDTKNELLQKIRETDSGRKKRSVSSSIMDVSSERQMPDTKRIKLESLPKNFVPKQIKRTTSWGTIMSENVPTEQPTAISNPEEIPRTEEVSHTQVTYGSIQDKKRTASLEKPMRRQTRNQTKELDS

[4] = target: T3, Sld2T84D (Saccharomyces cerevisiae, UniProt P34252 1-453, T84D); test: fluorescence anisotropy
T3 sequence: T1 sequence

[5] = target: T4, Sld2 (Saccharomyces cerevisiae, UniProt P34252 1-453); test: fluorescence anisotropy
T4 sequence: T1 sequence with D84T

[6] = target: T5, Dpb11;Sld2T84D (Saccharomyces cerevisiae;Saccharomyces …, UniProt P47027;P34252 1-764;1-453, |T84D); test: biotin-DNA pull-down
T5 sequence 1: T2 sequence (looked up)
T5 sequence 2: T1 sequence

B1: ARS1-T-A (ssDNA)
DNA: AAACAACAAGAAAAAAAACAGAAAAAAAGAAAAGAACAAAAAAGCAAGCAAAACAAAAGGCCAGCAGGCAAGAGCACAAA
B1: no binding [1].

B2: ARS1-A-C (ssDNA)
DNA: TTCCCTCTTGTTCTTTTCCCGCTTTTCTGTTTCGCTCTTTTCTGCTTGCTTTTCCCCCGGCCTGCCGGCCCGTGCCCCCC
B2: binds [2].

B3: Sld2T84D (radiolabeled, with a PKA sequence at the N-terminus) (natural protein, S. cerevisiae, UniProt P34252 1-453, looked up)
chain: T1 sequence
modifications: 32P-phosphate on the N-terminal PKA sequence (radiolabeled with PKA and γ-32P-ATP)
In the case of B3, the “percent of input pulled down (with ssARS1-1 at a ratio of 1.2 ssARS1-1/Sld2T84D)” value [3] is reported as 35.2%.

B4: FAM-ssARS1-1 (ssDNA)
DNA: TTACATCTTGTTATTTTACAGATTTTATGTTTAGATCTTTTATGCTTGCTTTTCAAAAGGCCTGCAGGCAAGTGCACAAA
Binder B4 has a Kd [4] of 179 ± 43 nM and a Kd [5] of 694 ± 50 nM.

B5: Biotin-ssARS1-1 (ssDNA)
DNA: B4 DNA
B5: binds [6].

B6: ARS1-G-C (ssDNA)
DNA: TTACATCTTGTTATTTTACACATTTTATCTTTACATCTTTTATCCTTCCTTTTCAAAACCCCTCCACCCAACTCCACAAA
B6: binds [2].
